Data: patent US20150056162A1

Legend:
[1] = biological target: IL-13Rα1 ectodomain (amino acids 1-310), biotinylated (human) (UniProt P78552); assay: SPR; equilibrium; conditions: ligand
[2] = biological target: IL-13Rα1 ectodomain (amino acids 1-310), biotinylated (human) (UniProt P78552); assay: SPR; kinetic; conditions: ligand

Chain of IL-13Rα1 ectodomain (amino acids 1-310), biotinylated (human) (P78552 other isoform, or with tags, fused parts or gaps): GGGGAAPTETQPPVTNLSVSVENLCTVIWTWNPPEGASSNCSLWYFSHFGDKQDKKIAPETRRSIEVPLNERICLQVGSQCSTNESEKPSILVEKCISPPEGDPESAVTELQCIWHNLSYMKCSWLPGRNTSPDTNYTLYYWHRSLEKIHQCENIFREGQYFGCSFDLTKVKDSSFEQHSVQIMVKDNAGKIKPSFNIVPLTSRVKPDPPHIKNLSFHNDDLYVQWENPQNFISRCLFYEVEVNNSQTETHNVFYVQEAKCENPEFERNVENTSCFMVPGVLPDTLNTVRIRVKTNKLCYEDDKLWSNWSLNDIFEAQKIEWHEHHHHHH

Kd [1] [nM]	Kd [2] [nM]	Substance
36000	–	IL-13 variant C4 (from UniProt P35225 34-146)
1600	–	IL-13 variant C11 (from UniProt P35225 34-146)
–	4.38	wild-type human IL-13 (from UniProt P35225 34-146)
